# Results from the DeepSol protein solubility set.
# Experiment: soluble on expression in E. coli; label from the status in PepcDB or PDB records
row,Sequence,soluble on expression in E. coli
1,MGSDKIHHHHHHMTFEPYPFERLRALLKEITPKKRGLDLGIGEPQFETPKFIQDALKNHTHSLNIYPKSAFEESLRAAQRGFFKRRFKIELKENELISTLGSREVLFNFPSFVLFDYQNPTIAYPNPFYQIYEGAAKFIKAKSLLMPLTKENDFTPSLNEKELQEVDLVILNSPNNPTGRTLSLEELISWVKLALKHDFILINDECYSEIYENTPPPSLLEACMLAGNEAFKNVLVIHSLSKRSSAPGLRSGFIAGDSRLLEKYKAFRAYLGYTSANAIQKASEAAWLDDRHAEFFRNIYANNLKLARKIFKNTLIYPYSFYVYLPVQNGENFAKTLYQNEGIITLPALYLGRNRIGADYVRLALVYDTPLLEKPLEIIETYRENHA,not soluble
2,MSLHGEKAPFPLTLIHINDLHARFDETNQKSSTCTNSKECIAGIARVYHTIKQLKSEYKTKNPLYLNAGDNFQGTLWYNLLRWNVTAYFIKELPPDAMTLGNHEFDHSPKGLAPYLAELEKMKIPTVVANLEKNGEPALKDSKIARSIVLKVGNRKVGVIGALYDKTHLVAQTGMVTLTNSIEAVRKEAQELKKKNVNIIVVLSHCGLDGDKQLAEEAGDLIDVIVGAHSHSLLLNKDAKVPYDTKYDTIEGDYPLVVKKSNNHTVLITQARSFGKYVGRLTVNFDCEGEVQSWEGYPIYMNNSVKEGHHHHHH,soluble
3,GSSDVQYTEVQVSSAESHKDLGKKDTETVYSEVRKAVPDAVESRYSRTEGSLDGT,soluble
4,MLIRPNKVQKVGNLFMDTVHEEEIRLLNQLYDTLMKKDVEKADQLMDELLVDLEDHFTTEEELMREFEFFAYPMHKAEHDTMRKRFKEVYDKWKKEKNPEEVVRFLKEEFVPWLKSHVARWDSTTAQQLGD,not soluble
5,MSLRSYDGQLVYNPVEENGVMVGQTVYKMNGSTLANYMKYNYKYDDNKRMIESETLKWNSTKEEWEKDLRINYTYEGKTVTTNYYKWNNKKRAYVLVPEMTVTMDNTNEGHHHHHH,soluble
6,MYSGARQGVISGKVTHHNEVFYEFFDKDYKYLFGKVKDIFTDVGAWVEYNVEKVQSHPKNCLHFAQNVNTEVKRTNAPTCDVFSSNRFQFDVREFNKVDFFQFDNADRQLSFKGTIRFNSNKNQFYHEYYGDVLVGEAEKLIRFGINEIDVMMNLYRSDEYTRGPHWYVKHYINKGKSYNINGYLSINGFVLRGPGGVVRNKNQVNIPPDALRPNNPVPNLSNGTSSQELAAAPNRNNFPTYATQRPRRNSDWDDEEPQTTAAPAGTSNSTAAASRPQVGDGKTGFRAFGGDAAPQSRGFDDGAIQRRAFGGLTTAPAAAPNRNNFPTYATQRPRRNSDWDDEDPQTTAAPAGTFNSAAASFRPQVGNGKAGSRAFGGDTAPQRSGLDDGATQRRAFEGLTIAPAAASNRNSFPTFATQRPRRNSDWGDEEPETTVAPAGKSNSTAAASRPQVGNGKTGSRPFGGDTAPQRRGLDDGAIQRRAFGGLTTAPAAAPNQNNFPTFATQRPRRNSDWDDEEPQATDAPAGTFNSAAASFRPQVGNGKAGSRAFGGDTAPQTSGLDDGAIERRAFGALATAPREVVLGGERAAGQLRPRGPESTIQPRRVPQSRQFGGVSATSNDPTTPEPRRINETPRVLLPPQSKGRRVDS,not soluble
7,MTDSTPQGSTPGMSPEAILNGTGKPWEEWLKLLDDVKATSWTHTHIAKHIVDNFDVSGWWAQGIAIGYEYERGMRKPGMTSDGFAANASKTLNLPVEKVWKLFGDDDLRAQWLDPALIEKTSASEPRTFNAKWLADDSRVSVNFTSKGDNKSSFGIQHRRLPDQDSIPVMKAFWKERIAALVEVSKQFSLLEHHHHHH,soluble
8,MTRIAIALAQDFADWEPALLAAAARSYLGVEIVHATPDGMPVTSMGGLKVTPDTSYDALDPVDIDALVIPGGLSWEKGTAADLGGLVKRFRDRDRLVAGICAAASALGGTGVLNDVAHTGNALASHKAYPAYRGEAHYRDQPRAVSDGGVVTAAGSAPVSFAVEILKSLGLFGPEAEAELQIFAAEHR,soluble
9,DITGIATGYRDLDHMTTGLHEEELIILAARPAVGKTAFALNIAQNIGTKLDKTVAIFSLEMGAESLVDRMLAAEGLVESHSIRTGQLTDEEWQKYTIAQGNLANASIYIDDTPGIRITEIRSRSRKLAQETGNLGLILIDYLQLITGTGRENRQQEVSEISRQLKILAKELKVPVIALSQLSRGVEQRQDKRPVLSDI,not soluble
